Data on 52 molecules can be found in patent US20150344570A1 (published 2015).

B1: GpH7-B3 variant G236_09D/GpL16-k0 (antibody, human IgG1, kappa)
heavy: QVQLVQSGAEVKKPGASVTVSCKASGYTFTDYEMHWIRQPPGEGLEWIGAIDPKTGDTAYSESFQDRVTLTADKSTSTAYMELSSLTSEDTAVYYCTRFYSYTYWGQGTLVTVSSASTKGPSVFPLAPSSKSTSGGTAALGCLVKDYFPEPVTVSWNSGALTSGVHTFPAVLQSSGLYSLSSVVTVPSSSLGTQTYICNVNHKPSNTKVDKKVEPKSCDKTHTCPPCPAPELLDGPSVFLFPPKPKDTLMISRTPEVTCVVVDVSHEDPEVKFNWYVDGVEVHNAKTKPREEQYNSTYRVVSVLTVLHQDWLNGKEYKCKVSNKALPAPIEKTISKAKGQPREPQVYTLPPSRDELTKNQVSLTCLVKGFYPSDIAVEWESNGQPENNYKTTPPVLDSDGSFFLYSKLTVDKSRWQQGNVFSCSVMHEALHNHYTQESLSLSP
light: DIVMTQSPLSLPVTPGEPASISCQASESLVHSNRNTYLHWYLQKPGQSPQLLIYKVSNRFSGVPDRFSGSGSGTDFTLKISRVEAEDVGVYYCSQNTHVPPTFGQGTKVEIERTVAAPSVFIFPPSDEQLKSGTASVVCLLNNFYPREAKVQWKVDNALQSGNSQESVTEQDSKDSTYSLSSTLTLSKADYEKHKVYACEVTHQGLSSPVTKSFNRGEC
notes: also called Ho Ab G236_09D
B2: GpH7-B3 variant S267_19Q/GpL16-k0 (antibody, human IgG1, kappa)
heavy: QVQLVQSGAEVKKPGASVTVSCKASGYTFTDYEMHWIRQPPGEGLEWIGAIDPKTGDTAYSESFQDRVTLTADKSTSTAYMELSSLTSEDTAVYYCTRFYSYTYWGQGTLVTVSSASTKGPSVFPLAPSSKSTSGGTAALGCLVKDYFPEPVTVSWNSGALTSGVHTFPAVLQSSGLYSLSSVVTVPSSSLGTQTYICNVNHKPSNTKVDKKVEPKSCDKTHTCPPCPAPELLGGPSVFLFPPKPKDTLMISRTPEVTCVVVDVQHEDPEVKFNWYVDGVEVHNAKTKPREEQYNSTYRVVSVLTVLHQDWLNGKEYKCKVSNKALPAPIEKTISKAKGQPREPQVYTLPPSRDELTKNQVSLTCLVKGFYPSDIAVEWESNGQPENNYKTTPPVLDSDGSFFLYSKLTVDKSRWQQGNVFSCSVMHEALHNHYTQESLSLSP
light: B1 light
notes: also called Ho Ab S267_19Q
B3: GpH7-B3 variant H268_18N/GpL16-k0 (antibody, human IgG1, kappa)
heavy: not shown
light: B1 light
notes: also called Ho Ab H268_18N
B4: GpH7-B3 variant S337_16H/GpL16-k0 (antibody, human IgG1, kappa)
heavy: not shown
light: B1 light
notes: also called Ho Ab S337_16H
B5: GpH7-B3 variant L328_13S/GpL16-k0 (antibody, human IgG1, kappa)
heavy: not shown
light: B1 light
notes: also called Ho Ab L328_13S
B6: GpH7-B3 variant K326_09D/GpL16-k0 (antibody, human IgG1, kappa)
heavy: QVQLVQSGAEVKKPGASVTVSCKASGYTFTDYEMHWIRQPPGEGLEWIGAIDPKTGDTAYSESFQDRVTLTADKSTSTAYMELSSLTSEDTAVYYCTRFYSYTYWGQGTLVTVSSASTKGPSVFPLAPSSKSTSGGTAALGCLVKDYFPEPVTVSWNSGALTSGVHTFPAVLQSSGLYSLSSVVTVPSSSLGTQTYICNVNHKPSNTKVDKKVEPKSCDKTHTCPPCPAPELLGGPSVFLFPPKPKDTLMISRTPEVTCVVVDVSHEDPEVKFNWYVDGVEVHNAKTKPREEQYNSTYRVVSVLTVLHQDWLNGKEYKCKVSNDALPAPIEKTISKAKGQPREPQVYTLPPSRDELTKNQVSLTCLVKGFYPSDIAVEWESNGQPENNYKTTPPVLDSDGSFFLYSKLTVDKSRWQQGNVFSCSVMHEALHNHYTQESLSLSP
light: B1 light
notes: also called Ho Ab K326_09D
B7: GpH7-B3 variant G237_20W/GpL16-k0 (antibody, human IgG1, kappa)
heavy: not shown
light: B1 light
notes: also called Ho Ab G237_20W
B8: GpH7-B3 variant H268_01G/GpL16-k0 (antibody, human IgG1, kappa)
heavy: not shown
light: B1 light
notes: also called Ho Ab H268_01G
B9: GpH7-B3 variant S324_06M/GpL16-k0 (antibody, human IgG1, kappa)
heavy: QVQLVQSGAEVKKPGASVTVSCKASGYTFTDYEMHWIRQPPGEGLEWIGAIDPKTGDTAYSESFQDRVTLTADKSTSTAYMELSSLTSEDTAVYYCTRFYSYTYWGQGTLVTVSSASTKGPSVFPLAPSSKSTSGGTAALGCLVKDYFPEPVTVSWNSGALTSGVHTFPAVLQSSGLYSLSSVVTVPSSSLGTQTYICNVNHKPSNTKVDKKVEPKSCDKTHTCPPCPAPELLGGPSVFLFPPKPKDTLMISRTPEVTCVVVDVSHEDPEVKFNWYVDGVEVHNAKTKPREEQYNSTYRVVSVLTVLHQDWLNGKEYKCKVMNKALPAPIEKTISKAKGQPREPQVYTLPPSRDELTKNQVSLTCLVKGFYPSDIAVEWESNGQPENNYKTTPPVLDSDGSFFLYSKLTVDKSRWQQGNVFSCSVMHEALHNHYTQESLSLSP
light: B1 light
notes: also called Ho Ab S324_06M
B10: GpH7-B3 variant L328_02A/GpL16-k0 (antibody, human IgG1, kappa)
heavy: not shown
light: B1 light
notes: also called Ho Ab L328_02A
B11: GpH7-B3 variant K326_14T/GpL16-k0 (antibody, human IgG1, kappa)
heavy: not shown
light: B1 light
notes: also called Ho Ab K326_14T
B12: GpH7-B3 variant K326_20W/GpL16-k0 (antibody, human IgG1, kappa)
heavy: not shown
light: B1 light
notes: also called Ho Ab K326_20W
B13: GpH7-B3 variant K334_08L/GpL16-k0 (antibody, human IgG1, kappa)
heavy: not shown
light: B1 light
notes: also called Ho Ab K334_08L
B14: GpH7-B3 variant K334_05P/GpL16-k0 (antibody, human IgG1, kappa)
heavy: not shown
light: B1 light
notes: also called Ho Ab K334_05P
B15: GpH7-B3 variant K326_19Q/GpL16-k0 (antibody, human IgG1, kappa)
heavy: not shown
light: B1 light
notes: also called Ho Ab K326_19Q
B16: GpH7-B3 variant K326_15Y/GpL16-k0 (antibody, human IgG1, kappa)
heavy: not shown
light: B1 light
notes: also called Ho Ab K326_15Y
B17: GpH7-B3 variant K326_08L/GpL16-k0 (antibody, human IgG1, kappa)
heavy: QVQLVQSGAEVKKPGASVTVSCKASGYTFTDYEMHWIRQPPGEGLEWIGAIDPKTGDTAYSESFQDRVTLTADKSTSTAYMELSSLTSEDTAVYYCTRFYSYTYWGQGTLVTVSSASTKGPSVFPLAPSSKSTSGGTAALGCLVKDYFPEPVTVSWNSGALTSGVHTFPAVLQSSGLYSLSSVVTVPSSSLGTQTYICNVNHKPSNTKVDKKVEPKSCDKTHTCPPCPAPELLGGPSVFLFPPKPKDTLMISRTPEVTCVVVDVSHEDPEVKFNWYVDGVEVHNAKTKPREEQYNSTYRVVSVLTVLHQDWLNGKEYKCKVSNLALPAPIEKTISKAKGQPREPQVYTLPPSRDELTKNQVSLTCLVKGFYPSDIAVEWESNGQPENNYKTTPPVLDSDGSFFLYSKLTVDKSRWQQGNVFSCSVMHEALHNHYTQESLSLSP
light: B1 light
notes: also called Ho Ab K326_08L
B18: GpH7-B3 variant K334_10E/GpL16-k0 (antibody, human IgG1, kappa)
heavy: not shown
light: B1 light
notes: also called Ho Ab K334_10E
B19: GpH7-B3 variant K326_04F/GpL16-k0 (antibody, human IgG1, kappa)
heavy: not shown
light: B1 light
notes: also called Ho Ab K326_04F
B20: GpH7-B3 variant S239_03V/GpL16-k0 (antibody, human IgG1, kappa)
heavy: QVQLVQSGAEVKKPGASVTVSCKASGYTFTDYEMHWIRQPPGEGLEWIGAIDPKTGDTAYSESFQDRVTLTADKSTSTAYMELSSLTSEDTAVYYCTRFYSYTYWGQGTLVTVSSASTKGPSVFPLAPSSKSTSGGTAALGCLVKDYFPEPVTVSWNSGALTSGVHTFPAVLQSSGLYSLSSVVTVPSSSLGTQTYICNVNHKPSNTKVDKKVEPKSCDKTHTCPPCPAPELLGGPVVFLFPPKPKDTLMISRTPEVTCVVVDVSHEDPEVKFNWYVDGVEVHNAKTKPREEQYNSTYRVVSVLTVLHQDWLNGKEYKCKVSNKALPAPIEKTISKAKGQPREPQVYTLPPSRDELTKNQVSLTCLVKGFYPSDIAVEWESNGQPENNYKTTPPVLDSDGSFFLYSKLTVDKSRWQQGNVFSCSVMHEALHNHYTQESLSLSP
light: B1 light
notes: also called Ho Ab S239_03V
B21: GpH7-B3 variant I332_15Y/GpL16-k0 (antibody, human IgG1, kappa)
heavy: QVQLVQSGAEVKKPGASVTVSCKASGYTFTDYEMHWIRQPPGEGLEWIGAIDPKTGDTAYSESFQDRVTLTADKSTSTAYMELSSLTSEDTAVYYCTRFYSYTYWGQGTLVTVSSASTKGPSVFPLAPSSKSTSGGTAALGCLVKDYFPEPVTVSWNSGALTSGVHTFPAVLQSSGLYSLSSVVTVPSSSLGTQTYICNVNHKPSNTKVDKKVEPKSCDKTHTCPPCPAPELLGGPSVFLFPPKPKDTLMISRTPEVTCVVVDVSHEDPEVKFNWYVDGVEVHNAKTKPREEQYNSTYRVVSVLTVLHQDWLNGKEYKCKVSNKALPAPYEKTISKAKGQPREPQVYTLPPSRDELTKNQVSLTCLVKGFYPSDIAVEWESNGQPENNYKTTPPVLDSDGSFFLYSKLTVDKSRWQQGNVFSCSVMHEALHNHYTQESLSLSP
light: B1 light
notes: also called Ho Ab I332_15Y
B22: GpH7-B3 variant I332_09D/GpL16-k0 (antibody, human IgG1, kappa)
heavy: not shown
light: B1 light
notes: also called Ho Ab I332_09D
B23: GpH7-B3 variant K334_14T/GpL16-k0 (antibody, human IgG1, kappa)
heavy: not shown
light: B1 light
notes: also called Ho Ab K334_14T
B24: GpH7-B3 variant P331_20W/GpL16-k0 (antibody, human IgG1, kappa)
heavy: not shown
light: B1 light
notes: also called Ho Ab P331_20W
B25: GpH7-B3 variant G237_04F/GpL16-k0 (antibody, human IgG1, kappa)
heavy: not shown
light: B1 light
notes: also called Ho Ab G237_04F
B26: GpH7-B3 variant K326_16H/GpL16-k0 (antibody, human IgG1, kappa)
heavy: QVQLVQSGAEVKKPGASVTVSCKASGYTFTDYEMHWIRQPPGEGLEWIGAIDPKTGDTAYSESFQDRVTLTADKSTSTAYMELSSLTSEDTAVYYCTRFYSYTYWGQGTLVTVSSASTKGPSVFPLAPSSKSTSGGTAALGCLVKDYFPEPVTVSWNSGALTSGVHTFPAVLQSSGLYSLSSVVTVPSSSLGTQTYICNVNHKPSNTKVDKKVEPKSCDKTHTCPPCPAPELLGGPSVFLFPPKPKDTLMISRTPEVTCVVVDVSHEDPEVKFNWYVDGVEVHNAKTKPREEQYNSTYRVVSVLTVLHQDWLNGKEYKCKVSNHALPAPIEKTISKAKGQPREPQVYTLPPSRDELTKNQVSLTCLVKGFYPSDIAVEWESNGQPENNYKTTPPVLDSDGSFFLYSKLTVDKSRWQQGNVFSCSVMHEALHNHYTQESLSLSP
light: B1 light
notes: also called Ho Ab K326_16H
B27: GpH7-B3 variant K334_03V/GpL16-k0 (antibody, human IgG1, kappa)
heavy: not shown
light: B1 light
notes: also called Ho Ab K334_03V
B28: GpH7-B3 variant H268_13S/GpL16-k0 (antibody, human IgG1, kappa)
heavy: not shown
light: B1 light
notes: also called Ho Ab H268_13S
B29: GpH7-B3 variant H268_10E/GpL16-k0 (antibody, human IgG1, kappa)
heavy: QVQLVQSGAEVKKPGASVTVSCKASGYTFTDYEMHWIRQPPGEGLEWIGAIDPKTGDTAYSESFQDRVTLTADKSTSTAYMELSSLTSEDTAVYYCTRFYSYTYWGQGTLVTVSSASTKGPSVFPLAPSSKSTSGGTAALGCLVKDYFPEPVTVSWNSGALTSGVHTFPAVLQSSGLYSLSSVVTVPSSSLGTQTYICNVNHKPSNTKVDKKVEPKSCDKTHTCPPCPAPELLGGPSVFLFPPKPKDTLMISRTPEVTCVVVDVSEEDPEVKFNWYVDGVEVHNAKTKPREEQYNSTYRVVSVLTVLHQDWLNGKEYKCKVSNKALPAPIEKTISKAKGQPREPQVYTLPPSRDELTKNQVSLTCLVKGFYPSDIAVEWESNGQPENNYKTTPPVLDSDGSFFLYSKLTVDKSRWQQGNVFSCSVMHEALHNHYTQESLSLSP
light: B1 light
notes: also called Ho Ab H268_10E
B30: GpH7-B3 variant L235_20W/GpL16-k0 (antibody, human IgG1, kappa)
heavy: not shown
light: B1 light
notes: also called Ho Ab L235_20W
B31: GpH7-B3 variant K334_13S/GpL16-k0 (antibody, human IgG1, kappa)
heavy: not shown
light: B1 light
notes: also called Ho Ab K334_13S
B32: GpH7-B3 variant I332_04F/GpL16-k0 (antibody, human IgG1, kappa)
heavy: not shown
light: B1 light
notes: also called Ho Ab I332_04F
B33: GpH7-B3 variant K326_03V/GpL16-k0 (antibody, human IgG1, kappa)
heavy: not shown
light: B1 light
notes: also called Ho Ab K326_03V
B34: GpH7-B3 variant P238_09D/GpL16-k0 (antibody, human IgG1, kappa)
heavy: not shown
light: B1 light
notes: also called Ho Ab P238_09D
B35: GpH7-B3 variant I332_14T/GpL16-k0 (antibody, human IgG1, kappa)
heavy: not shown
light: B1 light
notes: also called Ho Ab I332_14T
B36: GpH7-B3 variant P238_15Y/GpL16-k0 (antibody, human IgG1, kappa)
heavy: not shown
light: B1 light
notes: also called Ho Ab P238_15Y
B37: GpH7-B3 variant S267_06M/GpL16-k0 (antibody, human IgG1, kappa)
heavy: not shown
light: B1 light
notes: also called Ho Ab S267_06M
B38: GpH7-B3 variant S239_10E/GpL16-k0 (antibody, human IgG1, kappa)
heavy: not shown
light: B1 light
notes: also called Ho Ab S239_10E
B39: GpH7-B3 variant I332_10E/GpL16-k0 (antibody, human IgG1, kappa)
heavy: not shown
light: B1 light
notes: also called Ho Ab I332_10E
B40: GpH7-B3 variant K326_06M/GpL16-k0 (antibody, human IgG1, kappa)
heavy: not shown
light: B1 light
notes: also called Ho Ab K326_06M
B41: GpH7-B3 variant P331_16H/GpL16-k0 (antibody, human IgG1, kappa)
heavy: not shown
light: B1 light
notes: also called Ho Ab P331_16H
B42: GpH7-B3 variant K334_02A/GpL16-k0 (antibody, human IgG1, kappa)
heavy: not shown
light: B1 light
notes: also called Ho Ab K334_02A
B43: GpH7-B3 variant H268_09D/GpL16-k0 (antibody, human IgG1, kappa)
heavy: not shown
light: B1 light
notes: also called Ho Ab H268_09D
B44: GpH7-B3 variant K326_10E/GpL16-k0 (antibody, human IgG1, kappa)
heavy: not shown
light: B1 light
notes: also called Ho Ab K326_10E
B45: GpH7-B3 variant K334_07I/GpL16-k0 (antibody, human IgG1, kappa)
heavy: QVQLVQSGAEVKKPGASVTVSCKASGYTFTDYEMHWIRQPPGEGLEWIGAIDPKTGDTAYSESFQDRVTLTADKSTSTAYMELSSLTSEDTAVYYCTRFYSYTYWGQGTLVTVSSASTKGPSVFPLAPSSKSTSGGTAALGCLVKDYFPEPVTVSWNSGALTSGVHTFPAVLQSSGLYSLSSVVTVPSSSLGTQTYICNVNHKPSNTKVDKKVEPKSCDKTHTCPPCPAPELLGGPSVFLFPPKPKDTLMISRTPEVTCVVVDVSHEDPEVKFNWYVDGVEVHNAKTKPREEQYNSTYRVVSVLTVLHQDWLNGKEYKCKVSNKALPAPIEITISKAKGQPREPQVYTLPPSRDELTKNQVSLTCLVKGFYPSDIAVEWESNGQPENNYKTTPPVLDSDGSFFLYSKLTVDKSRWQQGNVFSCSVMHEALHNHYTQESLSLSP
light: B1 light
notes: also called Ho Ab K334_07I
B46: GpH7-B3 variant P238_04F/GpL16-k0 (antibody, human IgG1, kappa)
heavy: not shown
light: B1 light
notes: also called Ho Ab P238_04F
B47: GpH7-B3 variant I336_08L/GpL16-k0 (antibody, human IgG1, kappa)
heavy: not shown
light: B1 light
notes: also called Ho Ab I336_08L
B48: GpH7-B3 variant K334_04F/GpL16-k0 (antibody, human IgG1, kappa)
heavy: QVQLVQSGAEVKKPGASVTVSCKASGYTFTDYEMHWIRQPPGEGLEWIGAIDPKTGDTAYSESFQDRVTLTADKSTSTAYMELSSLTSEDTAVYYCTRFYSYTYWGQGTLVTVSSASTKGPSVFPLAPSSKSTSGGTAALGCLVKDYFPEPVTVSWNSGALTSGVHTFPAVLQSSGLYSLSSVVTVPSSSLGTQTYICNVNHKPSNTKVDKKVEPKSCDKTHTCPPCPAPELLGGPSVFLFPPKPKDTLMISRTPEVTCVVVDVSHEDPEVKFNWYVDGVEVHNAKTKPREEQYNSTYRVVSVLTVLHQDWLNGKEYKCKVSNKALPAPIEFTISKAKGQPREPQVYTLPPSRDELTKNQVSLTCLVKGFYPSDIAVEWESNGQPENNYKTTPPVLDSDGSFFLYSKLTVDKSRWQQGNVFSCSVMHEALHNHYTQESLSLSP
light: B1 light
notes: also called Ho Ab K334_04F
B49: GpH7-B3 variant T335_07I/GpL16-k0 (antibody, human IgG1, kappa)
heavy: not shown
light: B1 light
notes: also called Ho Ab T335_07I
B50: GpH7-B3 variant P331_15Y/GpL16-k0 (antibody, human IgG1, kappa)
heavy: not shown
light: B1 light
notes: also called Ho Ab P331_15Y
B51: GpH7-B3 variant I332_06M/GpL16-k0 (antibody, human IgG1, kappa)
heavy: not shown
light: B1 light
notes: also called Ho Ab I332_06M
B52: GpH7-B3 variant G236_10E/GpL16-k0 (antibody, human IgG1, kappa)
heavy: not shown
light: B1 light
notes: also called Ho Ab G236_10E

The target of the test is T1, FcγRIIb extracellular domain with C-terminal His tag (human, UniProt P31994 43-217).
T1 construct: extracellular domain; also called FcgRIIb; 2b; not shown: His tag at the C terminus
T1 sequence (looked up): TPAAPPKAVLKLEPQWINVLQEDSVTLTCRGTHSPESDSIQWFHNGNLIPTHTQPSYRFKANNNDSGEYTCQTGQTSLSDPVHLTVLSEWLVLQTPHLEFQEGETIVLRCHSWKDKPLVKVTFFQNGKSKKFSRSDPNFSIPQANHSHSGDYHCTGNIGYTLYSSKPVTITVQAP
Description: SPR, relative binding, HoCon Ab = 100. The protocol: Analysis of interaction between objective antibody and the FcγR was carried out using Biacore T100 (GE Healthcare). HBS-EP+ (GE Healthcare) was used as the running buffer, and the measurement temperature was set to 25° C. Chips produced by immobilizing the antigen peptide by the amine coupling method to a Series S Sencor Chip CM5 (GE Healthcare), or alternatively, chips produced by allowing preliminarily biotinylated antigen peptides to interact with and immobilize onto a Series S Sensor Chip SA (certified) (GE Healthcare) were used. Antibodies of interest were captured onto an antigen peptide-immobilized chip, and allowed to interact to each FcγR diluted with running buffer. To regenerate and repeatedly use the chip, the antibodies captured on the chip were washed off by reacting 10 mM glycine-HCl, pH 1.5.
As for B1, the Ho/Con_2b was 207 % of control. With B2, the Ho/Con_2b was 185 % of control. The value for B3 was 179 % of control; that for B4 was 103 % of control. The value for B5 was 147 % of control; that for B6 was 240 % of control; that for B7 was 166 % of control. The value for B8 was 158 % of control; that for B9 was 104 % of control. B10: the Ho/Con_2b is 117 % of control.

Regarding B11, the Ho/Con_2b was 177 % of control. For the molecule B12, the Ho/Con_2b is 132 % of control. The value for B13 was 114 % of control; that for B14 was 112 % of control. The value for B15 was 163 % of control; that for B16 was 162 % of control; that for B17 was 168 % of control. Turning to B18, the Ho/Con_2b is 129 % of control. Under B19 stands 160 % of control; under B20, 108 % of control; under B21, 109 % of control. As to B22, the Ho/Con_2b is 182 % of control. With B23, the Ho/Con_2b is 138 % of control. For B24, the Ho/Con_2b is 111 % of control. For B25, the Ho/Con_2b is 140 % of control. Under B26 stands 131 % of control; under B27, 145 % of control. As for B28, the Ho/Con_2b is 186 % of control. The value for B29 was 275 % of control; that for B30 was 116 % of control; that for B31 was 117 % of control. On to B32, for which the Ho/Con_2b is 117 % of control. Under B33 stands 184 % of control. For the molecule B34, the Ho/Con_2b was 207 % of control.

As for B35, the Ho/Con_2b was 106 % of control. With B36, the Ho/Con_2b was 114 % of control. Under B37 stands 187 % of control; under B38, 175 % of control. The value for B39 was 181 % of control; that for B40 was 193 % of control; that for B41 was 100 % of control. As for B42, the Ho/Con_2b is 110 % of control.

With B43, the Ho/Con_2b is 298 % of control. Under B44 stands 237 % of control. Regarding B45, the Ho/Con_2b is 137 % of control. Regarding B46, the Ho/Con_2b was 209 % of control. For the molecule B47, the Ho/Con_2b was 103 % of control.

Turning to B48, the Ho/Con_2b is 115 % of control. Under B49 stands 104 % of control. Regarding B50, the Ho/Con_2b was 111 % of control. For the molecule B51, the Ho/Con_2b was 106 % of control.

As for B52, the Ho/Con_2b is 114 % of control.
